Experimental data taken from the supplement of paper PMC7877785.
± gives the uncertainty stated by the source.

Test: self-splicing fitness, log relative to wild type (ln ratio); higher = more splicing; Tetrahymena group I intron in knt gene, E. coli kanamycin selection, DiMSum; sequences stand for … in CUCUCU…GGAGGGAAAAGUUAUCAGGCAUGCACCUGGUAGCUAGUCUUUAAACCAAUAGAUUGCAUCGGUUUAAAAGGCAAGACCGUCAAAUUGCGGGAAAGGGGUCAACAGCCGUUCAGUACCAAGUCUCAGGGGAAACUUUGAGAUGGCCUUGCAAAGGGUAUGGUAAUAAGCUGACGGACAUGGUCCUAACCACGCAGCCAAGUCCUAAGUCAACAGAUCUUCUGUUGAUAUGGAUGCAGUUCACAGACUAAAUGUCGGUCGGGGAAGAUGUAUUCUUCUCAUAAGAUAUAGUCGGACCUCUCCUUAAUGGGAGCUAGCGGAUGAAGUGAUGCAACACUGGAGCCGCUGGGAACUAAUUUGUAUGCGAAAGUAUAUUGAUUAGUUUUGGAGUACUCGUGGUCG
Procedure, shortened: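 A randomised library covering all eight P1ex-region intron nucleotides was built with the intron in the knt kanamycin-resistance gene on pET-22b(+) and held in E. coli BL21(DE3). Cells were grown overnight at 37°C or 30°C on LB agar, with or without 25 μg/mL kanamycin, plus 100 μg/mL carbenicillin, 50 μM IPTG and 0.2% rhamnose, and pooled colonies were amplicon-sequenced on an Illumina HiSeq 2500. DiMSum fitness is the error-weighted combination of wild-type-normalised replicate fold changes, kanamycin versus none.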

| Sequence | self-splicing fitness (ln) (30 °C) | self-splicing fitness (ln) (37 °C) |
| --- | --- | --- |
| UUUAAGCAAUAUUACGUUCA | -1.08 ± 0.11 | -0.403 ± 0.12 |
| UUUCAGCAAUAUUACGAACA | -0.771 ± 0.13 | 0.793 ± 0.22 |
| UUUCAGCAAUAUUACGAACU | -1.23 ± 0.092 | 0.244 ± 0.1 |
| UUUCAGCAAUAUUACGAAGA | -0.653 ± 0.24 | -0.0649 ± 0.25 |
| UUUCAGCAAUAUUACGAAGG | -2.18 ± 0.15 | -2.34 ± 0.28 |
| UUUCAGCAAUAUUACGAAUG | -0.511 ± 0.086 | -0.0774 ± 0.12 |
| UUUCAGCAAUAUUACGAGAU |  | -2.72 ± 0.48 |
| UUUCAGCAAUAUUACGAUAC | -2.17 ± 0.25 | -2.02 ± 0.26 |
| UUUCAGCAAUAUUACGAUAG | -0.323 ± 0.088 | -0.323 ± 0.11 |
| UUUCAGCAAUAUUACGAUCC |  | -0.887 ± 0.39 |
| UUUCAGCAAUAUUACGAUGC | -3.68 ± 0.28 | -2.01 ± 0.29 |
| UUUCAGCAAUAUUACGCCAA | -0.879 ± 0.18 | -0.379 ± 0.18 |
| UUUCAGCAAUAUUACGCGCA | -0.226 ± 0.11 | 0.569 ± 0.12 |
| UUUCAGCAAUAUUACGCUAC | -2.95 ± 0.22 | -2.39 ± 0.34 |
| UUUCAGCAAUAUUACGGACG | -0.348 ± 0.18 | 0.598 ± 0.23 |
| UUUCAGCAAUAUUACGGAGC | -3.25 ± 0.36 | -3.28 ± 0.43 |
| UUUCAGCAAUAUUACGGCAG | -0.779 ± 0.17 | 0.0981 ± 0.19 |
| UUUCAGCAAUAUUACGGCGG | -1.72 ± 0.15 | -0.833 ± 0.18 |
| UUUCAGCAAUAUUACGGCGU | -2.37 ± 0.14 | -0.454 ± 0.14 |
| UUUCAGCAAUAUUACGGGAU | -2.73 ± 0.12 | -1.64 ± 0.13 |

| Sequence | self-splicing fitness (ln) (30 °C) | self-splicing fitness (ln) (37 °C) |
| --- | --- | --- |
| UUUCAGCAAUAUUACGUAAG | -0.33 ± 0.087 | 0.394 ± 0.13 |
| UUUCAGCAAUAUUACGUCAA | -1.19 ± 0.1 | -0.056 ± 0.097 |
| UUUCAGCAAUAUUACGUCAC | -3.13 ± 0.43 | -2.86 ± 0.35 |
| UUUCAGCAAUAUUACGUGUC | -3.73 ± 0.18 | -2.04 ± 0.15 |
| UUUCAGCAAUAUUACGUUUA | -1.34 ± 0.11 | -0.334 ± 0.13 |
| UUUGAGCAAUAUUACGAAUU | -2.47 ± 0.23 | -2.01 ± 0.3 |
| UUUGAGCAAUAUUACGACUC | -2.58 ± 0.44 | -2.37 ± 0.41 |
| UUUGAGCAAUAUUACGAGGA | -3.62 ± 0.28 | -3.55 ± 0.46 |
| UUUGAGCAAUAUUACGAUGU | -3.05 ± 0.3 | -2.34 ± 0.39 |
| UUUGAGCAAUAUUACGCCGG | -2.04 ± 0.35 | 0.228 ± 0.38 |
| UUUGAGCAAUAUUACGCCUG | -2.85 ± 0.27 | -1.21 ± 0.38 |
| UUUGAGCAAUAUUACGCUAA | -1.08 ± 0.41 |  |
| UUUGAGCAAUAUUACGCUUC | -2.18 ± 0.31 | -2.53 ± 0.44 |
| UUUGAGCAAUAUUACGCUUU |  | -1.59 ± 0.22 |
| UUUGAGCAAUAUUACGGCAG | -1.6 ± 0.17 | -1.56 ± 0.21 |
| UUUGAGCAAUAUUACGGGAG | -3.55 ± 0.28 | -1.99 ± 0.19 |
| UUUGAGCAAUAUUACGGUGC | -2.74 ± 0.47 | -2.2 ± 0.33 |
| UUUGAGCAAUAUUACGUGAA | -1.97 ± 0.17 | -1.82 ± 0.17 |
| UUUGAGCAAUAUUACGUUCU | -3.55 ± 0.32 | -2.58 ± 0.25 |
| UUUUAGCAAUAUUACGAAAA | -1.13 ± 0.17 | -0.0479 ± 0.18 |

| Sequence | self-splicing fitness (ln) (30 °C) | self-splicing fitness (ln) (37 °C) |
| --- | --- | --- |
| UUUUAGCAAUAUUACGACAA | -0.409 ± 0.15 | -0.125 ± 0.17 |
| UUUUAGCAAUAUUACGAUUA | -0.349 ± 0.16 | 0.0391 ± 0.13 |
| UUUUAGCAAUAUUACGCACA | -0.201 ± 0.21 | -0.107 ± 0.19 |
| UUUUAGCAAUAUUACGCAUA | -1.52 ± 0.27 | -0.671 ± 0.21 |
| UUUUAGCAAUAUUACGCCGA | -1.15 ± 0.29 | -0.282 ± 0.32 |
| UUUUAGCAAUAUUACGCGGG | -0.691 ± 0.17 | -0.801 ± 0.17 |
| UUUUAGCAAUAUUACGCUAC |  | -2.79 ± 0.31 |
| UUUUAGCAAUAUUACGCUGG | -3.74 ± 0.39 | -2.88 ± 0.44 |
| UUUUAGCAAUAUUACGGAAU |  | -2.48 ± 0.4 |
| UUUUAGCAAUAUUACGGACC | -2.44 ± 0.4 | -0.175 ± 0.33 |
| UUUUAGCAAUAUUACGGAUA | -1.07 ± 0.33 | -1.21 ± 0.4 |
| UUUUAGCAAUAUUACGGCUU | -1.98 ± 0.17 | -0.826 ± 0.2 |
| UUUUAGCAAUAUUACGGGAA | -1.16 ± 0.16 | -1.19 ± 0.13 |
| UUUUAGCAAUAUUACGGGGG | -3.07 ± 0.41 | -2.25 ± 0.31 |
| UUUUAGCAAUAUUACGGUAA | -1.94 ± 0.2 | -0.884 ± 0.14 |
| UUUUAGCAAUAUUACGUCCA | -1.59 ± 0.22 | -0.545 ± 0.19 |
| UUUUAGCAAUAUUACGUUUG | -1.6 ± 0.082 | -0.497 ± 0.12 |
| UUUUAGCAAUAUUACGUUUU | -3.49 ± 0.21 | -2.22 ± 0.27 |
